The target in test [1] is tektin A (S. purpuratus (endogenous in sperm flagella)). As to the kind of experiment: co-sedimentation; Ribbons extracted with 0.5% Sarkosyl and urea (1-3 M; 1.75 M for the stoichiometry) in 10TEAD; the insoluble tektin filaments analysed by SDS-PAGE densitometry (Serva Blue) and immunoblotting. Background: A western blot detects proteins with antibodies after separation by electrophoresis.

The target of test [2] is tektin B (S. purpuratus (endogenous in sperm flagella)). The test is described as above.

The stoichiometry N is the number of molecules, sites or subunits per partner or assembly. tektin B (natural protein) returned a stoichiometry N in test [1] of 1.
On to tektin C (natural protein), for which the stoichiometry N in test [1] and in test [2] was 1 each time.

Source of the values: PMC4067180.
